From patent publication US20180193452A1 come the findings set out here.

The target of this test is wild type CAR (WT CAR): human FcεRIα extracellular domain fused to CD3ζ (human). Put plainly: cell-based or functional assay.
Target sequence (chain, as listed by the source): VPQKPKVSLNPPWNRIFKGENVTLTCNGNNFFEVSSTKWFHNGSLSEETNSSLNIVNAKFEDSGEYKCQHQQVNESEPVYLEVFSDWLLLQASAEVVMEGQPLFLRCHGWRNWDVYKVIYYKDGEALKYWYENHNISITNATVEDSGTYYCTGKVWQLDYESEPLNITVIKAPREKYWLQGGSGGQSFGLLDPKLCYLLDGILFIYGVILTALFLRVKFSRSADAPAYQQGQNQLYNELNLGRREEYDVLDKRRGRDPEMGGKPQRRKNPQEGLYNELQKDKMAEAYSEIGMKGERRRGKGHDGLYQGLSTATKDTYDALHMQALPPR

Sequence of purified human IgE (Abcam) (P01854 other isoform, or with tags, fused parts or gaps): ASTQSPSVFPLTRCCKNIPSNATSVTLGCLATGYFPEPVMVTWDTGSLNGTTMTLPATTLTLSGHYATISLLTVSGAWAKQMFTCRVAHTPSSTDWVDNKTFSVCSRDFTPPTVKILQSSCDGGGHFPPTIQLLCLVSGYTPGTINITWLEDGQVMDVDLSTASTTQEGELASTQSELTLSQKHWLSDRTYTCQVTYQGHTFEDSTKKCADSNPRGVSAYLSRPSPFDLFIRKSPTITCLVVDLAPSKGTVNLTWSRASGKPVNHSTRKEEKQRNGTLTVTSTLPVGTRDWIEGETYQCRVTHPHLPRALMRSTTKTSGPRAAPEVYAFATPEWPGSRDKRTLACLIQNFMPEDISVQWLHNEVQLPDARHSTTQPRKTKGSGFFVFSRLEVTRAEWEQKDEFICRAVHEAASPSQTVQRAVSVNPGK

In the case of “purified human IgE (Abcam) (from UniProt P01854 1-428) (antibody)”, the suppression of CD69 up-regulation by U266 cells, free IgE at 1.7 µg/ml was over 2 fold and the suppression of CD69 up-regulation by U266 cells, free IgE at 10 µg/ml is over 4 fold.
